Results from patent publication US20100280227A1 (Genentech, published 2010).
Several values for one entry are separate records, joined by “and”; a condition that tells them apart may be missing. Equal entries are not always repeated. Where two headings read alike, the source gives them in different places.

Key:
[1] = biological target: T1, human BR3 extracellular domain (human, UniProt Q96RJ3 1-61); assay: SPR, BR3 ECD on chip;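 note: Anti-BR3 antibodies passed over the chip at high flow in PBS with 0.05% polysorbate 20, on and off rates fitted together globally to a 1:1 binding model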
T1 construct: biotinylated where used as tracer; also called hBR3-ECD; BR3-ECD

[2] = biological target: T2, variant human BR3-Fc fusion; assay: SPR, vBR3-Fc on chip;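 note: Anti-BR3 antibodies passed over chip-bound BR3-Fc in PBS with 0.05% polysorbate 20, on and off rates fitted together globally to a 1:1 binding model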
T2 construct: produced in CHO cells; also called vBR3-Fc; vhBR3-Fc
Method: After coupling, unoccupied sites on the chip were blocked by injecting 20 μl of 1M ethanolamine, pH 8.5. The running buffer was PBS containing 0.05% polysorbate 20. […] The binding surface was regenerated by injecting 20-30 μl of 10 mM glycine.HCl (pH 1.5). […] Data were analyzed using a 1:1 binding model using global fitting. The association and dissociation rate constants were fitted simultaneously (BIAevaluation software).
A high flow rate was used in order to minimize mass transport effects.

[3] = biological target: T1, human BR3 extracellular domain; assay: BIAcore, Fab over immobilised target
Method: (§1) Each sample was analysed with 2-minute association and 20-minute dissociation. After each injection the chip was regenerated using 10 mM Glycine pH 1.5. Binding response was corrected by subtracting the RU from a blank flow cell. A 1:1 Languir model of simultaneous fitting of kₒₙ and koff was used for kinetics analysis.

[4] = biological target: T3, mouse BR3 extracellular domain (mouse, UniProt Q9D8D0 1-64); assay: SPR BIAcore-2000, mBR3-ECD on chip, Fab injected
T3 construct: also called mBR3-ECD; mBR-ECD
T3 sequence: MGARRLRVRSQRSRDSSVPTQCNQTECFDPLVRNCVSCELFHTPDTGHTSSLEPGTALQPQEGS
From the text: (§2) Biacore measurement Surface plasmon resonance assays on a BIAcore™-2000 were used to determine the affinity of anti-BR3 Fabs. […] For kinetics analysis, 1:1 Languir model of simultaneous fitting of kₒₙ and koff was used.

[5] = biological target: T1, human BR3 extracellular domain; assay: SPR BIAcore-2000, ECD on chip, Fab injected
From the text: as §2

[6] = biological target: T3, mouse BR3 extracellular domain; assay: SPR BIAcore-2000, ECD on chip, Fab injected
From the text: as §2

[7] = biological target: T1, human BR3 extracellular domain; assay: phage competition ELISA
[8] = biological target: T3, mouse BR3 extracellular domain; assay: phage competition ELISA
[9] = biological target: T1, human BR3 extracellular domain; assay: SPR BIAcore-2000, hBR3-ECD on chip, Fab injected
From the text: as §2

MiniBR3 peptide = biological target: T4, MiniBR3 peptide (human, C-terminal amide; disulfide between cysteines 24 and 35 and a second disulfide (BR3 numbering)); assay: phage competition ELISA
T4 construct: synthetic

[10] = biological target: T1, human BR3 extracellular domain; assay: single spot phage competition ELISA; OD with competitor / OD without competitor; criterion met by the picked clones
[11] = biological target: T3, mouse BR3 extracellular domain; assay: as above
[12] = biological target: T1, human BR3 extracellular domain; assay: SPR BIAcore-3000, Fab
From the text: (§3) Surface plasmon resonance assays on a BIAcore™-3000 were used to determine the affinity of the Fabs.

[13] = biological target: T3, mouse BR3 extracellular domain; assay: SPR BIAcore-3000, Fab
From the text: as §3

mouse BR3-Fc = biological target: T5, mouse BR3-Fc (mouse); assay: F(ab)'2 phage solution binding competition ELISA
T5 construct: (BR3 ECD fused to a murine Fc); also called mBR3-Fc; murine BR3-Fc
T5 chain: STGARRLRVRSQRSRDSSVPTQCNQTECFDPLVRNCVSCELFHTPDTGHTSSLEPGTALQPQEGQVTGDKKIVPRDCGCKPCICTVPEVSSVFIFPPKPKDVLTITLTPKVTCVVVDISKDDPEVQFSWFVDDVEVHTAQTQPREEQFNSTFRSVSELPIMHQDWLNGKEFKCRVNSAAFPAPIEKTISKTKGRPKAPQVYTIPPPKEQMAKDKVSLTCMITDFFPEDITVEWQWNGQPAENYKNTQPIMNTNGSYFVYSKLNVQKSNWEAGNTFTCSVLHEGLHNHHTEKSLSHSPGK
Method: (§4) Third, a competition ELISA was performed. […] The wells were blocked by adding 65 ul 1% BSA for 30 minutes followed by 40 ul 1% Tween20 for another 30 minutes. The wells were washed with PBS—0.05% Tween20 5 times. […] The wells of the second plate were washed with PBS—0.5% Tween20 at least three times. 75 ul of HRP-conjugated anti-M13 antibody (1/5000 dilution with ELISA buffer) per well was added and incubated at room temperature for 30 minutes. The wells were washed again with PBS—0.05% Tween20 at least five times.

[14] = biological target: T1, human BR3 extracellular domain; assay: F(ab)'2 phage solution binding competition ELISA
Method: as §4

[15] = biological target: T3, mouse BR3 extracellular domain; assay: F(ab)'2 phage solution binding competition ELISA
Method: as §4

[16] = biological target: T2, variant human BR3-Fc fusion; assay: BIAcore, Fab over immobilised target
Method: as §1

T4 sequence (peptide, as listed by the source): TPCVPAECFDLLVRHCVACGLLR

B1: chimeric 2.1 Fab (Fab, V domains shown)
VH: EVQLQESGPSLVKPSQTLSLTCSVTGDSITRGYWNWIRKFPGNKLEFMGYINYSGTTYYNPSLKSRISITRDTSKNQYYLQLNSVTTEDTATYYCATPHTYGAMDYWGQGTTLTVSA
VL: DIVLTQSPVSLAVSLGQRATISCRASESVDDYGISFMHWYQQKPGQPPKLLIYRASDLESGIPARFSGSGSGTDFTLTINPVETDDVAIYYCQQTSKDPWTFGGGT
notes: Fab with murine variable domains; also called Ch 2.1 Fab
Kd [1]: 0.12 nM and 0.11 nM
koff [1]: 0.000271 s⁻¹ and 0.000294 s⁻¹
kon [1]: 2.25e+06 M⁻¹ s⁻¹ and 2.65e+06 M⁻¹ s⁻¹
Kd ([2]; 140 RU BR3-Fc immobilized): 1.12 nM
koff ([2]; 140 RU BR3-Fc immobilized): 0.00148 s⁻¹
kon ([2]; 140 RU BR3-Fc immobilized): 1.32e+06 M⁻¹ s⁻¹
Kd ([2]; 220 RU BR3-Fc immobilized): 0.92 nM
koff ([2]; 220 RU BR3-Fc immobilized): 0.00145 s⁻¹
kon ([2]; 220 RU BR3-Fc immobilized): 1.58e+06 M⁻¹ s⁻¹
Kd [3]: 0.115 nM

B2: V3-1 Fab (Fab, V domains shown)
VH: EVQLVESGGGLVQPGGSLRLSCAASGFTISSNSIHWVRQAPGKGLEWVAWITPSDGNTDYADSVKGRFTISADTSKNTAYLQMNSLRAEDTAVYYCARRVCYNRLGVCAGGMDYWGQGTLVTVSS
VL: DIQMTQSPSSLSASVGDRVTITCRASQDVSTAVAWYQQKPGKAPKLLIYSASFLYSGVPSRFSGSGSGTDFTLTISSLQPEDFATYYCQQSRITPPTFGQGTKVEIKR
notes: soluble Fab in SPR
Kd [4]: 2.5 nM
koff [4]: 0.000195 s⁻¹
kon [4]: 77100 M⁻¹ s⁻¹
Kd [5]: 7.9 nM
koff [5]: 0.000293 s⁻¹
kon [5]: 37300 M⁻¹ s⁻¹
Kd [6]: 2.5 nM
koff [6]: 0.000195 s⁻¹
kon [6]: 77100 M⁻¹ s⁻¹
IC50 [7]: 9.4 nM
IC50 [8]: 9.5 nM
Kd [9]: 7.87 nM
koff [9]: 0.000293 s⁻¹
kon [9]: 37300 M⁻¹ s⁻¹
IC50 (MiniBR3 peptide): 5.4 nM
OD450nm reduction (%) [10]: < 50%
OD450nm reduction (%) [11]: < 50%

B3: V3-46s Fab (Fab, V domains shown)
VH: EVQLVESGGGLVQPGGSLRLSCAASGFTISSSSIHWVRQAPGKGLEWVAWVLPSVGFTDYADSVKGRFTISADTSKNTAYLQMNSLRAEDTAVYYCARRVCYNRLGVCAGGMDYWGQGTLVTVSS
VL: DIQMTQSPSSLSASVGDRVTITCRASQDVSTAVAWYQQKPGKAPKLLIYSASFLYSGVPSRFSGSGSGTDFTLTISSLQPEDFATYYCQQSQISPPTFGQGTKVEIKR
notes: N31S mutant of V3-46; also called V46s; N31S
Kd [4]: 1 nM
koff [4]: 0.00027 s⁻¹
kon [4]: 270000 M⁻¹ s⁻¹
Kd [9]: 0.6 nM
koff [9]: 8.6e-05 s⁻¹
kon [9]: 140000 M⁻¹ s⁻¹
Kd [12]: 0.6 nM
koff [12]: 8.6e-05 s⁻¹
kon [12]: 140000 M⁻¹ s⁻¹
Kd [13]: 1 nM
koff [13]: 0.00027 s⁻¹
kon [13]: 270000 M⁻¹ s⁻¹

B4: 75 (Fab, V domains shown)
VH: EVQLVESGGGLVQPGGSLRLSCAASGFTINGSWIHWVRQAPGKGLEWVAWITPSNGSTDYADSVKGRFTISADTSKNTAYLQMNSLRAEDTAVYYCARLSRRPWLWGMDYWGQGTLVTVSS
VL: DIQMTQSPSSLSASVGDRVTITCRASQDVSTAVAWYQQKPGKAPKLLIYSASFLYSGVPSRFSGSGSGTDFTLTISSLQPEDFATYYCQQSYTTPPTFGQGTKVEIKR
notes: also called V75; clone 75
IC50 (mouse BR3-Fc): > 10 µM
binding result [14]: binds
binding result [15]: no binding

B5: 46 (Fab, V domains shown)
VH: EVQLVESGGGLVQPGGSLRLSCAASGFTITGSYIHWVRQAPGKGLEWVAWIYPDGGYTDYADSVKGRFTISADTSKNTAYLQMNSLRAEDTAVYYCASKPAGFGYWGQGTLVTVSS
VL: DIQMTQSPSSLSASVGDRVTITCRASQDVSTAVAWYQQKPGKAPKLLIYSASFLYSGVPSRFSGSGSGTDFTLTISSLQPEDFATYYCQQSYTTPPTFGQGTKVEIKR
notes: also called V46; clone 46 of the naive library (not V3-46)
binding result (mouse BR3-Fc): binds
binding result [14]: binds

B6: V3-13 Fab (Fab, V domains shown)
VH: EVQLVESGGGLVQPGGSLRLSCAASGFTISRRSIHWVRQAPGKGLEWVAWITPSDGNTDYADSVKGRFTISADTSKNTAYLQMNSLRAEDTAVYYCARRVCYSSVRGCAGAMDYWGQGTLVTVSS
VL: DIQMTQSPSSLSASVGDRVTITCRASQDVSTAVAWYQQKPGKAPKLLIYGASNLYSGVPSRFSGSGSGTDFTLTISSLQPEDFATYYCQQSHASPPTFGQGTKVEIKR
notes: soluble Fab in SPR
Kd [5]: 1200 nM
koff [5]: 0.0028 s⁻¹
kon [5]: 2300 M⁻¹ s⁻¹
Kd [6]: 40 nM
IC50 (MiniBR3 peptide): 473 nM
OD450nm reduction (%) [10]: < 50%
OD450nm reduction (%) [11]: < 50%

B7: V3-12 Fab (Fab, V domains shown)
VH: EVQLVESGGGLVQPGGSLRLSCAASGFTISSNSIHWVRQAPGKGLEWVAWITPSDGNTDYADSVKGRFTISADTSKNTAYLQMNSLRAEDTAVYYCARRVCYDRARVCAGAMDYWGQGTLVTVSS
VL: DIQMTQSPSSLSASVGDRVTITCRASQDVSTAVAWYQQKPGKAPKLLIYSASFLYSGVPSRFSGSGSGTDFTLTISSLQPEDFATYYCQQSYSTPPTFGQGTKVEIKR
notes: soluble Fab in SPR
Kd [5]: 72 nM
koff [5]: 0.00091 s⁻¹
kon [5]: 13000 M⁻¹ s⁻¹
Kd [6]: 36 nM
koff [6]: 0.0013 s⁻¹
kon [6]: 36000 M⁻¹ s⁻¹
IC50 (MiniBR3 peptide): 35 nM
OD450nm reduction (%) [10]: < 50%
OD450nm reduction (%) [11]: < 50%

B8: V3-11 Fab (Fab, V domains shown)
VH: EVQLVESGGGLVQPGGSLRLSCAASGFTISSNSIHWVRQAPGKGLEWVAWITPSDGNTDYADSVKGRFTISADTSKNTAYLQMNSLRAEDTAVYYCARRVCYNNLGVCAGAMDYWGQGTLVTVSS
VL: DIQMTQSPSSLSASVGDRVTITCRASQDVSTAVAWYQQKPGKAPKLLIYSASFLYSGVPSRFSGSGSGTDFTLTISSLQPEDFATYYCQQTSTSPPTFGQGTKVEIKR
notes: soluble Fab in SPR
Kd [5]: 60.1 nM
koff [5]: 0.00113 s⁻¹
kon [5]: 21800 M⁻¹ s⁻¹
Kd [6]: 20.4 nM
koff [6]: 0.000888 s⁻¹
kon [6]: 43600 M⁻¹ s⁻¹
IC50 (MiniBR3 peptide): 11 nM
OD450nm reduction (%) [10]: < 50%
OD450nm reduction (%) [11]: < 50%

B9: chimeric 11G9 Fab (Fab, V domains shown)
VH: DVQLQESGPSLVKPSQTLSLTCSVTGDSITSGYWNWIRKFPGNKLEYMGYISYSGSTYYNPSLKSRISITRDTSKNQFYLQLLSVTTEDTATYYCAGLDGLYWYFDVWGAGTLVTVSS
VL: DIVMTQTPLSLPVSLGDQASISCRSSQSLVHSNGNTYLHWYLQKPGQSPKLLIYKVSNRFSGVPDRFSGSGSGTDFTLKISRVEAEDLGVYFCSQSTHVPPFTFGSGT
notes: Fab with murine variable domains; also called Ch 11G9 Fab
Kd [1]: 19.5 nM and 23.5 nM
koff [1]: 0.0233 s⁻¹ and 0.0263 s⁻¹
kon [1]: 1.2e+06 M⁻¹ s⁻¹ and 1.12e+06 M⁻¹ s⁻¹
Kd [3]: 21.5 nM
Kd [16]: > 100 nM

B10: Hu9.1-73 Fab (Fab, V domains shown)
VH: EVQLVESGGGLVQPGGSLRLSCAASGLPMAGFYTSWVRQAPGKGLEWVGFIRDKANGYTTEYNPSVKGRFTISADTSKNTAYLQMNSLRAEDTAVYYCAQVRRALDYWGQGTLVTVSS
VL: DIQMTQSPSSLSASVGDRVTITCKSSQSLLYSSNQNNYLAWYQQKPGKAPKLLIYWAQHLDSGVPSRFSGSGSGTDFTLTISSLQPEDFATYYCQQYYTYPYTFGQGTKVEIKR
notes: Fab expressed in E. coli
Kd [1]: 0.31 nM and 0.32 nM
koff [1]: 0.000174 s⁻¹ and 0.000175 s⁻¹
kon [1]: 560000 M⁻¹ s⁻¹ and 550000 M⁻¹ s⁻¹
Kd [2]: 0.43 nM and 0.48 nM
koff [2]: 0.000215 s⁻¹ and 0.000225 s⁻¹
kon [2]: 500000 M⁻¹ s⁻¹ and 470000 M⁻¹ s⁻¹
Kd [16]: 0.45 nM

B11: Hu9.1-88 Fab (Fab, V domains shown)
VH: EVQLVESGGGLVQPGGSLRLSCAASGFPVTGSYVSWVRQAPGKGLEWVGFIRDKANGYTTEYNPSVKGRFTISRDTSKNTLYLQMNSLRAEDTAVYYCAQVRRALDYWGQGTLVTVSS
VL: DIQMTQSPSSLSASVGDRVTITCKSSQSLLYSSNQNNYLAWYQQKPGKAPKLLIYWASTRESGVPSRFSGSGSGTDFTLTISSLQPEDFATYYCQQYYTYPYTFGQGTKVEIKR
notes: Fab
Kd [1]: 0.736 nM
koff [1]: 0.00101 s⁻¹
kon [1]: 1.37e+06 M⁻¹ s⁻¹
Kd [2]: 1.37 nM
koff [2]: 0.000742 s⁻¹
kon [2]: 541000 M⁻¹ s⁻¹
Kd [3]: 6.3 nM
Kd [16]: 11 nM
